Read-outs that look alike come from different tables or passages of the source. *1 amine or outer side, *2 acyl side, *3 side chain or, on linkers, in order; H or OH if unused. Where a SMILES comes first, the peptide text is derived from it. [ ]: non-standard residue; d: D form. The star is where a group is joined. ξ: configuration not given here. Exatecan = CC[C@@]1(O)C(=O)OCc2c1cc1n(c2=O)Cc2c-1nc1cc(F)c(C)c3c1c2[C@@H](N*)CC3; Dolaproine = CO[C@@H]([C@@H]1CCCN1)[C@@H](C)C(=O)O; X2 = CO[C@@H]([C@H]1CCCN1[*:1])[C@@H](C)C(=O)[*:2]; ξDil = CC[C@H](C)C([C@@H](CC(=O)[*:2])OC)N(C)[*:1]; Hexanoyl(6-maleimido) = O=C1C=CC(=O)N1CCCCCC(=O)*; Propanoyl(3-maleimido) = O=C1C=CC(=O)N1CCC(=O)*; Dil = CC[C@H](C)[C@H](NC)[C@@H](CC(=O)O)OC; PABC = O=C(OCc1ccc(N[*:1])cc1)[*:2]; NHCH2OCH2CO = O=C(COCN[*:1])[*:2]; X3 = C[C@@H](N*)[C@@H](O)c1ccccc1; NMeV = CN[C@H](C(=O)O)C(C)C
Key:
[1] = format: physicochemical; details: ADC with Her2 antibody, RP-HPLC-MS
Procedure: (§1) A drug-antibody conjugating ratio (also known as drug-antibody ratio, abbreviated as DAR) of the antibody-drug conjugate was tested using reversed-phase high-performance liquid chromatography-mass chromatography (RP-HPLC-MS). The ADC sample was diluted with 50 mmol/L Tris buffer (pH 8.0) to 1 mg/ml. A fresh dithiothreitol (DTT) stock solution was added to achieve a final DTT concentration of 50 mmol/L. Incubation was performed at 37° C. for 30 minutes. A PLRP-S chromatographic column (1000 Å pores, 2.1×50 mm, 5) μm) was used, and the column temperature was 70° C. The flow rate was 0.25 mL/min. […] of sample was injected; the mobile phase A was an aqueous solution of 0.1% formic acid (V/V) and 0.025% trifluoroacetic acid (V/V), and the mobile phase B was an acetonitrile solution of 0.1% formic acid (V/V) and 0.025% trifluoroacetic acid (V/V); the running time was 0-3 minutes, where 27% of mobile phase B ran for 3 minutes, and the mobile phase B ran from 27% to 49% within 3-25 minutes, from 49% to 95% within 25-26 minutes, at 95% within […], from 95% to 27% within 30-31.5 minutes, and at 27% for 31.5-45 minutes. […] Mass spectrometry drying gas was at a temperature of 350° C. and a flow rate of 7.0 L/min, the pressure of an atomizer was 40 psi, capillary voltage was positive 3000V and negative 3000V, and the mass range was 500-1600 m/z. The molecular weight of each mass spectrometry peak (ranging from 20000 to 70000) was calculated by deconvolution and compared with light and heavy chain molecular weights of un-conjugated antibodies to calculate a drug load at each peak, so as to determine the load of a corresponding ultraviolet peak. Area percentages of heavy and light chain ultraviolet peaks were calculated through integration, and a weighted average DAR of the antibody-drug conjugate was calculated by combining the area percentages with the drug load distribution of each peak.

[2] = Polymer (high molecular component) content of antibody-drug conjugates by SE-HPLC; format: physicochemical; details: ADC with Her2 antibody
Procedure: (§2) Polymers (high molecular components) of the antibody-drug conjugates were tested using molecular exclusion high-performance liquid chromatography (SE-HPLC). A Biocore SEC chromatographic column (7.8×300 mm, […]) was used, and the mobile phase was 50 mM phosphate containing 300 mM sodium chloride (pH 6.8), with a flow rate of 0.5 mL/min. Samples of […] and 10 μl were injected. […] The polymer content of an antibody-drug conjugate was calculated using an area normalization method.

[3] = Naked antibody content of antibody-drug conjugates by hydrophobic interaction chromatography (HIC); format: physicochemical; details: ADC with Her2 antibody
Procedure: The content of naked antibodies in the antibody-drug conjugate was tested using hydrophobic interaction chromatography (HIC). A Biocore HIC-Butyl chromatographic column (4.6×150 mm, 5 μm) was used. The mobile phase A was a 100 mM phosphate aqueous solution containing 2 M ammonium sulfate (pH 7.0), and the mobile phase B was a 100 mM phosphate aqueous solution (pH 7.0): isopropanol=80:20 (V/V). Samples of 50 μg and 10 μl were injected. The mobile phase A at the flow rate of 1 mL/min ran at 100% for 3 minutes. Within 3-25 minutes, the mobile phase B ran from […] to 100%, while the mobile phase B decreased to 0% at 25.1 and ran to 30 minutes. […] The naked antibody content of the antibody-drug conjugate was calculated using an area normalization method based on the retention time of a naked antibody peak located by the antibody of the antibody-drug conjugate.

[4] = Stability (placement) test of ADCs at 40° C. in dark for 14 days, DAR and polymer content; format: physicochemical
Procedure: as §2, §1
Stability testing method: The stability of the obtained ADCs was tested for 14 days. The ADCs were placed at 40° C. in dark. Sampling points were days 0, 7, and 14. The polymer content and DAR value of samples at different sampling points were tested according to the method in Experimental Example 1.

Structure (SMILES)	DAR [1]	Polymer content (%) [2] [%]	Naked antibody content (%) [3] [%]	DAR ([4]; Day 0, 40° C. in dark)	Polymer content (%) ([4]; Day 0, 40° C. in dark)	DAR ([4]; Day 7, 40° C. in dark)	Polymer content (%) ([4]; Day 7, 40° C. in dark)	DAR ([4]; Day 14, 40° C. in dark)	Polymer content (%) ([4]; Day 14, 40° C. in dark)
CC[C@H](C)[C@@H]([C@@H](CC(=O)N1CCC[C@H]1[C@H](OC)[C@@H](C)C(=O)N[C@H](C)[C@@H](O)c1ccccc1)OC)N(C)C(=O)[C@@H](NC(=O)[C@H](C(C)C)N(C)C(=O)OCc1ccc(NC(=O)CNC(=O)[C@H](Cc2ccccc2)NC(=O)CNC(=O)CNC(=O)CCCCCN2C(=O)C=CC2=O)cc1)C(C)C [Comparative Example 1, reference compound] ({Hexanoyl(6-maleimido)}-GGFG[PABC][NMeV]V[Dil][Dolaproine]-X3)	1.03	38.31	23.50	–	–	–	–	–	–
C=C1C[C@@H]2CC[C@@]34C[C@H]5OC6C(O[C@H]7CC[C@H](CC(=O)C[C@@H]8[C@@H](OC)[C@@H](C[C@H](O)CNC(=O)CNC(=O)[C@H](Cc9ccccc9)NC(=O)CNC(=O)CNC(=O)CCOCCOCCN(CCOCCOCCC(=O)NCC(=O)NCC(=O)N[C@@H](Cc9ccccc9)C(=O)NCC(=O)NCOCC(=O)N[C@H]9CCc%10c(C)c(F)cc%11nc%12c(c9c%10%11)Cn9c-%12cc%10c(c9=O)COC(=O)[C@]%10(O)CC)C(=O)CCCCCN9C(=O)C=CC9=O)O[C@H]8C[C@H]8O[C@@H](CC[C@@H]1O2)C[C@@H](C)C8=C)O[C@@H]7[C@@H]6O3)[C@H]5O4 [Comparative Example 3, reference compound]	0.81	50.73	60.77	–	–	–	–	–	–
CCc1c2c(nc3ccc(O)cc13)-c1cc3c(c(=O)n1C2)COC(=O)[C@@]3(CC)OC(=O)N(C)CCN(C)C(=O)COCNC(=O)CNC(=O)[C@H](Cc1ccccc1)NC(=O)CNC(=O)CNC(=O)CCN1C(=O)C=CC1=O [Comparative Example 6, reference compound]	2.76	13.74	9.06	–	–	–	–	–	–
C=C1C[C@@H]2CC[C@@]34C[C@H]5OC6C(O[C@H]7CC[C@H](CC(=O)C[C@@H]8[C@@H](OC)[C@@H](CC(O)CNC(=O)CNC(=O)[C@H](Cc9ccccc9)NC(=O)CNC(=O)CNC(=O)CCOCCOCCC(CCOCCOCCC(=O)NCC(=O)NCC(=O)N[C@@H](Cc9ccccc9)C(=O)NCC(=O)NCOCC(=O)N[C@H]9CCc%10c(C)c(F)cc%11nc%12c(c9c%10%11)Cn9c-%12cc%10c(c9=O)COC(=O)[C@]%10(O)CC)C9CCC(NC(=O)CCOCCOCCOCCOCCN%10C(=O)C=CC%10=O)CC9)O[C@H]8C[C@H]8O[C@@H](CC[C@@H]1O2)C[C@@H](C)C8=C)O[C@@H]7[C@@H]6O3)[C@H]5O4 (stereo partly shown) [Comparative Example 7, reference compound]	0.86	60.31	53.82	–	–	–	–	–	–
CC[C@H](C)C([C@@H](CC(=O)N1CCC[C@@H]1[C@H](OC)[C@@H](C)C(=O)N[C@H](C)[C@@H](O)c1ccccc1)OC)N(C)C(=O)[C@@H](NC(=O)[C@H](C(C)C)N(C)C(=O)OCc1ccc(NC(=O)CNC(=O)[C@H](Cc2ccccc2)NC(=O)CNC(=O)CNC(=O)CCN2C(=O)C=CC2=O)cc1)C(C)C (stereo partly shown) [Comparative Example 8, reference compound] ({Propanoyl(3-maleimido)}-GGFG[PABC][NMeV]V[ξDil][X2]-X3)	2.57	12.37	10.15	–	–	–	–	–	–
C=C1C[C@@H]2CC[C@@]34C[C@H]5OC6C(O[C@H]7CC[C@H](CC(=O)C[C@@H]8[C@@H](OC)[C@@H](C[C@H](O)CNC(=O)CNC(=O)[C@H](Cc9ccccc9)NC(=O)CNC(=O)CNC(=O)CCOCCOCCN(CCOCCOCCC(=O)NCC(=O)NCC(=O)N[C@@H](Cc9ccccc9)C(=O)NCC(=O)NCOCC(=O)N[C@H]9CCc%10c(C)c(F)cc%11nc%12c(c9c%10%11)Cn9c-%12cc%10c(c9=O)COC(=O)[C@]%10(O)CC)C9CCC(NC(=O)CCCCCN%10C(=O)C=CC%10=O)CC9)O[C@H]8C[C@H]8O[C@@H](CC[C@@H]1O2)C[C@@H](C)C8=C)O[C@@H]7[C@@H]6O3)[C@H]5O4 (stereo partly shown) [Comparative Example 9, reference compound]	0.91	70.65	57.78	–	–	–	–	–	–
C=C1C[C@@H]2CC[C@@]34C[C@H]5OC6C(O[C@H]7CC[C@H](CC(=O)C[C@@H]8[C@@H](OC)[C@@H](C[C@H](O)CNC(=O)CNC(=O)[C@H](Cc9ccccc9)NC(=O)CNC(=O)CNC(=O)CCN9C(=O)C=CC9=O)O[C@H]8C[C@H]8O[C@@H](CC[C@@H]1O2)C[C@@H](C)C8=C)O[C@@H]7[C@@H]6O3)[C@H]5O4 [Comparative Example 12, reference compound]	2.67	13.18	7.00	–	–	–	–	–	–
C=C1C[C@@H]2CC[C@@]34C[C@H]5OC6C(O[C@H]7CC[C@H](CC(=O)C[C@@H]8[C@@H](OC)[C@@H](C[C@H](O)CNC(=O)CNC(=O)[C@H](Cc9ccccc9)NC(=O)CNC(=O)CNC(=O)CCOCCOCCN(CCOCCOCCC(=O)NCC(=O)NCC(=O)N[C@@H](Cc9ccccc9)C(=O)NCC(=O)NCOCC(=O)N[C@H]9CCc%10c(C)c(F)cc%11nc%12c(c9c%10%11)Cn9c-%12cc%10c(c9=O)COC(=O)[C@]%10(O)CC)C9CCC(C(=O)CCOCCOCCN%10C(=O)C=CC%10=O)CC9)O[C@H]8C[C@H]8O[C@@H](CC[C@@H]1O2)C[C@@H](C)C8=C)O[C@@H]7[C@@H]6O3)[C@H]5O4 (stereo partly shown) [Comparative Example 13, reference compound]	1.01	78.50	60.37	–	–	–	–	–	–
CC[C@@]1(O)C(=O)OCc2c1cc1n(c2=O)Cc2c-1nc1cc(F)c(C)c3c1c2[C@@H](NC(=O)COCNC(=O)CNC(=O)[C@H](Cc1ccccc1)NC(=O)CNC(=O)CNC(=O)CCCCCN1C(=O)C=CC1=O)CC3 [Comparative Example 14, reference compound] ({Hexanoyl(6-maleimido)}-GGFG[NHCH2OCH2CO]-Exatecan)	8.00	–	–	–	–	–	–	–	–
C=C1C[C@@H]2CC[C@@]34C[C@H]5OC6C(O[C@H]7CC[C@H](CC(=O)C[C@@H]8[C@@H](OC)[C@@H](C[C@H](O)CNC(=O)CNC(=O)[C@H](Cc9ccccc9)NC(=O)CNC(=O)CNC(=O)CCOCCOCCN(CCOCCOCCC(=O)NCC(=O)NCC(=O)N[C@@H](Cc9ccccc9)C(=O)NCC(=O)NCOCC(=O)N[C@H]9CCc%10c(C)c(F)cc%11nc%12c(c9c%10%11)Cn9c-%12cc%10c(c9=O)COC(=O)[C@]%10(O)CC)C(=O)CN9CCOCCOCCOCCOCCN(C(=O)CCCCCC%10C(=O)C=CC%10=O)CCOCCOCCOCCOCC9)O[C@H]8C[C@H]8O[C@@H](CC[C@@H]1O2)C[C@@H](C)C8=C)O[C@@H]7[C@@H]6O3)[C@H]5O4 [Example 14]	3.82	0.59	4.97	3.82	0.59	3.83	0.63	3.84	0.72
C=C1C[C@@H]2CC[C@@]34C[C@H]5OC6C(O[C@H]7CC[C@H](CC(=O)C[C@@H]8[C@@H](OC)[C@@H](C[C@H](O)CNC(=O)CNC(=O)[C@H](Cc9ccccc9)NC(=O)CNC(=O)CNC(=O)CCOCCOCCN(CCOCCOCCC(=O)NCC(=O)NCC(=O)N[C@@H](Cc9ccccc9)C(=O)NCC(=O)NCOCC(=O)N[C@H]9CCc%10c(C)c(F)cc%11nc%12c(c9c%10%11)Cn9c-%12cc%10c(c9=O)COC(=O)[C@]%10(O)CC)C(=O)CN9CCOCCOCCOCCOCCN(C(=O)CCOCCOCCOCCOCCOCCOCCOCCOCCN%10C(=O)C=CC%10=O)CCOCCOCCOCCOCC9)O[C@H]8C[C@H]8O[C@@H](CC[C@@H]1O2)C[C@@H](C)C8=C)O[C@@H]7[C@@H]6O3)[C@H]5O4 [Example 15]	4.07	1.20	3.63	4.07	1.20	4.07	1.21	4.11	1.27
